Target: T1, human GPRC5D protein (human, UniProt Q9NZD1 1-345)
T1 construct: also called hGPRC5D
Experiment: FACS, subclone supernatant on H929 cells
Procedure: An H929 (i.e., NCI-H929) cell suspension at a cell concentration of 3× 10⁵ cells/mL was plated into a 96-well U-bottom plate at 100 μL/well. The subcloned cell culture supernatant was added at 100 μL/well or an equal volume of culture medium (hereinafter referred to as Medium) was added. The mixture was mixed well, and then incubated at 4° C. for 1 h. The cells were washed with PBS containing 2% (by volume) of FBS. An AlexaFluor488-conjugated goat anti-mouse IgG+IgM (H+L) antibody (Jackson Immuno Research, Cat. No.: 115-545-044) was added, and the mixture was incubated at 4° C. for 1 h. The cells were washed with PBS containing 2% (by volume) of FBS and then resuspended. Fluorescence signals were detected on a flow cytometer (Sartorius, IQue3). The binding of the mouse anti-hGPRC5D antibody to H929 cells was analyzed by the mean fluorescence intensity (MFI) of staining.

T1 sequence (Q9NZD1 whole entry): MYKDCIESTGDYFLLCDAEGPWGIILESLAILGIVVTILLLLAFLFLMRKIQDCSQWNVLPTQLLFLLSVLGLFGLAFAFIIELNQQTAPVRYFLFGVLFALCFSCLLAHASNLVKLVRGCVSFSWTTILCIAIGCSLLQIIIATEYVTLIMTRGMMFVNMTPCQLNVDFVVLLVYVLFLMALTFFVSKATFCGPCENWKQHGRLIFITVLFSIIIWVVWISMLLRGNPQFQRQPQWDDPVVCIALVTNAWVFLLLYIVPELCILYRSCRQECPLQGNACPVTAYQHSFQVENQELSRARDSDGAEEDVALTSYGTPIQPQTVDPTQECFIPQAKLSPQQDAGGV

Row | Binder | MFI [MFI]
1 | mouse anti-hGPRC5D antibody mu-128 (antibody, V domains shown, Tested as subcloned hybridoma culture supernatant) VH: DVQLVESGGGLVQPGGSRKVSCAASGFTFSSFGMHWVRQAPEKGLEWVAYISRGSSTIYYADTVKGRFTISRDNPKNTLFLQMTSLRSEDTAMYYCARSGYGSSSYYFDYWGQGTTLTVSS VL: ENVLTQSPAIMSASPREKVTMTCRASSSIRSSYLHWYQQKSGASPKLWIYSTSNLASGVPARFSGSGSGTSYSLTISSVEAEDAATYYCQQFSGYPLTFGGGTKLEIK | 15700
2 | mouse anti-hGPRC5D antibody mu-131 (antibody, V domains shown, Tested as subcloned hybridoma culture supernatant) VH: EVQLQQSGPELVKPGASVKMSCKASGYTFTNYVMHWVKQKPGQGLEWIGYFNPYNDGTNYNEKFKGKATLTSDKSSNTAYMELSSLTSEDSAVYYCARGGVRRYFDVWGAGTTVTVSS VL: DIQMTQSPSSLSASLGERVSLTCRASQDIGSNLNWLQLGPDGTIKRLIYATFSLDSGVPKRFSGSRSGSDYSLTISSLESEDFVDYYCQQYANFPPTFGGGTKLEIK | 12800
3 | mouse anti-hGPRC5D antibody mu-89 (antibody, V domains shown, Tested as subcloned hybridoma culture supernatant) VH: EVQLVESGGDLVKPGGSLKLSCAASGFTFSSYGMSWVRQTPDKRLEWVATISSGGSYTYYPDSVKGRFTFSRDNAKNTLYLQMSSLKSEDTAMYYCVRQALRYHMDSWGQGTSVTVSS VL: DIVMTQSQKFMSTSVGDRVSVTCKASQNVGTNVAWYQQKPGQSPKALIYSASYRYSGVPDRFTGSGSGTDFTLTISNVQSEDLADFFCQQYYSYPWTFGGGTKLEIK | 11900

Other lines, results leading:

Row | MFI [MFI] | Binder
4 | 13200 | mouse anti-hGPRC5D antibody mu-105 (antibody, V domains shown, Tested as subcloned hybridoma culture supernatant) VH: EVQLQQSGPELVKPGASVKMSCKASGYTFTDYYMNWVKQSHGKSLEWIGYIYPNNGGTGYNQRFKGKATLTADKSSSTAYMELRSLTSEDSAVYYCARWGGTRLGYYAMDYWGQGTSVTVSS VL: DIVMTQSQKFMSTSVGDRVSVTCKASQNVGTNVVWYQQKPGQSPKLLIYWASTRHTGVPDRFTGSGSGTDFTLTISNVQSEDLADYFCQQYSRYPYTFGGGTKLEIK
5 | 59300 | mouse anti-hGPRC5D antibody mu-169 (antibody, V domains shown, Tested as subcloned hybridoma culture supernatant) VH: EVKLVESGGGLVKPGASLKLSCAASGFTFSNYGMSWVRQTSDKRLEWVASISSGGGRIYYPDNVKGRFTISRENAKNTLYLQMSSLKSEDTALYYCTRHAMDNWGQGTSVIVSS VL: QIVLTQSPAIMSASPGEKVTMTCSASSSVSNMYWYQQKSGTSPKRWIYDTSKLASGVPARFSGSGSGTSYSLTISSMEAEDASTYYCQQWSSNPLTFGAGTTLELK
